Measured values: the supplement of paper PMC9170038

System: K4 kissing-loop RNA reporter
Assay: apparent KD of K4 kissing-loop reporter; higher = weaker reporter binding
Conditions: Eterna round: R107
Protocol: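 RNA-MaP round R107: designed RNA switches with theophylline, tryptophan, arginine or FMN aptamers are transcribed on-chip within common flanks. They are titrated with a labelled K4 kissing-loop RNA reporter in RNA-MaP buffer (100 mM Tris pH 7.5, 80 mM KCl, 4 mM MgCl2), without ligand or with the indicated ligand. Median apparent KD per design.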

[1] = input ligand: theophylline 20 uM
[2] = input ligand: tryptophan 2.4 mM
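Also: bound reporter read as fluorescence of individual clusters on recovered sequencing chips by microscopy, with normalized cluster intensities fitted with a binding model.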

| Sequence | apparent KD of K4 kissing-loop reporter (input ligand: FMN 200 uM) | apparent KD of K4 kissing-loop reporter (input ligand: arginine 13.2 mM) | apparent KD of K4 kissing-loop reporter (input ligand: none) | apparent KD of K4 kissing-loop reporter [1] | apparent KD of K4 kissing-loop reporter [2] |
| --- | --- | --- | --- | --- | --- |
| GGAAGAAGUGGUGUUGAUUAAGAAGCGGAAGGAGCGCCGAAGAAGGCAGGUAGGUCGCCGAAAUAUAGUGAUGUUAUAUAAAAGG [ExArg.A] | 168 nM | 170 nM | 229 nM | 168 nM | 199 nM |
| GCAUCCAUGGCAGGAUAUAGGUUCGUGGAGUGAUGUUCCAUAGCCCGAGUGAUGUUCGUUAUCCACCUAGAAGGGCCAUGGAUGC [whbob_Ex_FMNB__2th212] | 270 nM | 205 nM | 246 nM | 211 nM | 210 nM |
| AAGUGUCAUUAGACACAGACUACAAUACACUAGGAUAUGCUGAUAAGCAGAAGGAGUGAUGUUCCUUUCAAGUAGUCAAUUAAAU [FmnAX 21 Mat Inspired #SwitchBubble #StaticStem #K4Late] | 237 nM | 148 nM | 143 nM | 178 nM | 140 nM |
| ACAGCGAGCAUUAACGCGCUCGCAGGUUGCAAGGAUAUAUUUCGUCAUAGAAGGUGCUAGACCAUAAGUGAUGUUUGUGGAUAUA [theeternabot_sameState_KL_FMN_A_16] | 576 nM | 396 nM | 503 nM | 448 nM | 525 nM |
| AAAAUAAAUCAGUGAUGUUGGUAUCCGGAUACCAGCGAUAAUCAUCGCCCUUGGCAGCCGUGGACGUACAAAAUAAGUACGUCCU [MatMod 16 - Jieux - Same State - Theophylline A] | 137 nM | 104 nM | 168 nM | 171 nM | 183 nM |
| AGAUUCGACACGGCCGCCACUUCCAGUGGCUGGUGUCAUGGUGCACGUGAGUGAUGUUUAUGUGGAAGGACCGGGUGUUGAGUCU [KL-XTryp-B2 #analogue] | 652 nM | 472 nM | 670 nM | 504 nM | 1250 nM |
| UUAGUCUAGAGAAGGAGCGAGUGAUGUUCGCAGCCCAAAUAAUAAUAAUAAUAAGGGCAUCCUCAGGUAGGUCGCUCUAGACAUU [AK5 Exc Arginine B] | 335 nM | 290 nM | 334 nM | 354 nM | 292 nM |
| AGUGCACUGUCAGGAUAUGUACAGUGAUGUUGUGUAUGUCAGCAAGUCAAAGACUUGCUCUUCUGUGCAGAAGGGACUGUGUACA [Omei KL FMN B Exc A v5] | 755 nM | 464 nM | 628 nM | 506 nM | 554 nM |
| AGGGAUGAUGGAUAAAUAAACAAAGGAGAUACCAGUCAAAUAAUAGGCCCUUGGCAGCUUCAGAUCAGUGAUGUUGAAGAUAUUG [#09 K4 Theophylline A Same State] | 109 nM | 67.1 nM | 139 nM | 148 nM | 110 nM |
| GGCUCCUACGGAGGAUAUAGUAGCCCAGAGUGAUGUUCUAGGGUGUUUUCCGAUUUAGUCAUUGUUCUAGAAGGCCGUAGGAGCC | 266 nM | 177 nM | 189 nM | 183 nM | 210 nM |
| GAAUAAUAACAUGAGUGAUGUUCAUGUAAACGAGGACCGGUACGGCCGCCACUCGAACCUCAUGUAAGCCGUACCAAUAACAAUA [KL-XTryp-A4 #analogue] | 115 nM | 120 nM | 112 nM | 116 nM | 120 nM |
| UGUCAUUGGUCUGAUACCAGUCCCUUGGCAGCCAAAUGGAGUGAUGUUCCAAGGAUACCAGACCCUUGGCAGCAGACCGAUGACU [TheoBS 26 #DoubleAptamer #SwitchBubble] | 556 nM | 397 nM | 552 nM | 377 nM | 499 nM |
| GCCGUAGAUUGAAGGAGCGGGAGAGGGAAAGUGAUGUUUUCUCUAUGACGGCGUCCUCGAUCCCAGGUAGGUCGCAAUCUACGGC | 137 nM | 80.7 nM | 99.7 nM | 80.3 nM | 105 nM |
| GGGAAGGAGUGAUGUUUCUUCUGAAUUUCUAAGGAUAUACGAUGCGGUAGAAGGUAGAUGCCUUGCAGGAAAUGUUCACCACGCG [theeternabot_exclusion_KL_FMN_A_2] | 218 nM | 146 nM | 150 nM | 184 nM | 158 nM |
| UGUGAACAAAAGUAGAGUGGACCACUAUAGCGAGGACCGGUACGGCCGCCACUCGUACAUGUAUUCAGUGAUGUUGAAAUGAGCU [whbob_EX_Tryp_A_t15] | 200 nM | 319 nM | 268 nM | 362 nM | 150 nM |
| UGAUUGCCAGUGAUGUUGGCAGUUUCUGAAGGAGCGCGUGAAAACGCAGGUAGGUCGCAGAUUAGUGCCAAUUGAUCGAAAGAUC [KL-XArg-A4] | 208 nM | 227 nM | 214 nM | 193 nM | 205 nM |
| UACUUUAAUUUAUAACUAUCUUUAUUUUGUCAGGAUAUCGUAUAGUCGAGAAGGGACUCUAUCAAGUGAUGUUUGAUAUAUCGUU [JR_SSFMNA_Sub025] | 140 nM | 155 nM | 131 nM | 147 nM | 112 nM |
| GGCUUGCCAGUGAUGUUGGCAUAAACUGAAGGAGCGCGUGAAAACGCAGGUAGGUCGCAGAACCUUGCCAACUAUUUUAUUUGCC [Ex Arginine A K4 24] | 192 nM | 223 nM | 212 nM | 252 nM | 210 nM |
| UAAGAGUCUCUGCAAUUAGCAGAGACUCAACGAGGACCGGUACGGCCGCCACUCGGGUCCUAGAGUGAUGUUCUAAUAAUAUAAU [AK1.1 SS Tryptophan A] | 273 nM | 359 nM | 548 nM | 425 nM | 176 nM |
| GGAUAGGACACAGGAUAUGGGCUAGGCAAGAAUAACUUGUCUAGCAAAUCCAUGAGGAGUGAUGUUCCAGAAGGGUGUCCUAUCG [FmnBX 1 C11+G75] | 431 nM | 111 nM | 94.9 nM | 97.3 nM | 86.7 nM |
| ACGUCUUGUAAACUCGUGGUUUCGAUCGAUACCAGUAGCGAGAGUUACCCUUGGCAGCGACAUGAGUGAUGUUCAUGUACGAAGA [KL-XTheoA3] | 98.6 nM | 87.9 nM | 92.9 nM | 89 nM | 90.7 nM |

| Sequence | apparent KD of K4 kissing-loop reporter (input ligand: FMN 200 uM) | apparent KD of K4 kissing-loop reporter (input ligand: arginine 13.2 mM) | apparent KD of K4 kissing-loop reporter (input ligand: none) | apparent KD of K4 kissing-loop reporter [1] | apparent KD of K4 kissing-loop reporter [2] |
| --- | --- | --- | --- | --- | --- |
| AGUCCGCUCCAAGGAUAUAGUCCGGCUGCGCGUCAGUGAUGUUGAAGAAGUAUCGCGUCUCUAUAGCUAGAAGGUGGCGCAAUUG [theeternabot_sameState_KL_FMN_B_20] | 715 nM | 471 nM | 989 nM | 696 nM | 782 nM |
| GGCAUAGUCUCAACGUGUGGUUGGGUUGGGAAGGAUAUUUGAUCGAAAAGAAGGUCCCGCAUUGAGUGAUGUUCAAGGGCUCCAA [theeternabot_exclusion_KL_FMN_A_26] | 226 nM | 220 nM | 262 nM | 213 nM | 246 nM |
| CCGAGCUACAGCGAUACCAGUGUGGAGUGAUGUUCCCUGGUCCGGGCUGUUGUUCCCUUGCGCCCUUGGCAGCGCAGAAGCAGCU [Exclusion Theophylline B GF 14] | 303 nM | 316 nM | 367 nM | 267 nM | 396 nM |
| UAAGAAUAAGUAGCAGUGAUGUUGCUACUACGAGGACCGGUACGGCCGCCACUCGAGUCCUCGAAACAUCACUGAACGAGGAAUA [(H,1)-(H,2)-(Trp1)-(Trp2)-(T)'-(H)'-(T)''] | 231 nM | 150 nM | 201 nM | 136 nM | 358 nM |
| AUCGAUAUCAGAGGAUAUGCUUAAUUGAUUUAUUAUUAUUUAUUAUGCAGUGAUGUUGCAUUUUUUGCAGAAGGCUGAUUUCGAA [JR_SSFMNB_Sub022] | 112 nM | 150 nM | 126 nM | 137 nM | 117 nM |
| ACUUUGGGCCCAGUGAUGUUGGGUCCAGAUACCAGACGUAAAUAAGUCCCUUGGCAGCUGCGUACUAACUAGCACAGGAGGGUCC [Edleaes] | 135 nM | 143 nM | 150 nM | 154 nM | 141 nM |
| UUUGGUUUCUCGGCCGCCACUCGUGGGAAAUGGGCCUCAGGGAUAUAGUGAUGUUAUGUAAAGAAGAGGACCGGGAGAAGGAAGG [ExTryptoB.Dl] | 300 nM | 253 nM | 306 nM | 208 nM | 233 nM |
| AAUAUAGUGAUGUUAUAUAAGAAGGAGUUACGAGGACCGGUACGGCCGCCACUCGAAACGAGUGAGGAUUUGGGAGAUUGGGUCC [SSTryptA.K] | 300 nM | 366 nM | 430 nM | 384 nM | 299 nM |
| UGAUACCAGACGGCCGCCACUAGAGCUAGCAAAGCUAGCAAGUGAUGUUUGAGGAGUGAUGUUCCUAGGACCGGGUCUGGUAUCU [TrypBX 2 #Palindromic #SwitchBubble #StaticStem] | 103 nM | 85.5 nM | 96.2 nM | 86.8 nM | 39.9 nM |
| UGAUAGGACAGAAGGAGCGGAGGUCGUCAAAGACGACCAAUACGUUAAAUAGGAGUGAUGUUCCAGGUAGGUCGCUGUCCUAUCU [ArgBX 30 #SwitchBubble #StaticStem] | 123 nM | 119 nM | 123 nM | 129 nM | 106 nM |
| AGUAGUUGGACGGCCGCCACUAGAACGCCUUUGCCAAAGGCAGAGGACUAGAGUGAUGUUCUAGCUAGGACCGGGUCCAACUACA [Omei KL Tryp B SS A v4] | 224 nM | 232 nM | 308 nM | 127 nM | 1220 nM |
| UGAUACCAGACUGAUACCAGCCAGUGAUGUUGGCUAAAACCAAAAGCUGGCAAAGCCAGCGGCCCUUGGCAGCAGUCUGGUAUCU [TheoBX 1 #SwitchBubble #StaticStem] | 816 nM | 694 nM | 806 nM | 1010 nM | 667 nM |
| AGGCACGAGCAAGGAUAUCGAGUAGAGUGAUGUUCUGCCUGGGUUGGCGCGCAAGGGCCUUCCCAGCGAGAAGGUGCUCGUGCCU [#2 Same State - FMN A Attempt #11 (HarryS)] | 221 nM | 840 nM | 916 nM | 682 nM | 634 nM |
| GUAGGAUGAGGAGGAGGAUGAAUUACUGAAGGAGCGCAUAUAAAUGCAGGUAGGUCGCGGUAAAGAAGUAUAGUGAUGUUAUAUA [SSArgA.G] | 421 nM | 636 nM | 580 nM | 438 nM | 329 nM |
| UUUCGGCUCUGAGGAUAUUCGGACAAAUAUAGUGAUGUUGUAUAAGGAGGAGGGUGUUGGCAGUGAGGAGAAGGCAGAGGAGGAU [#07 K4 FMN B Exclusion] | 376 nM | 208 nM | 397 nM | 358 nM | 214 nM |
| GCGCGUGUUAAAGGAUAUAGCAGGUGAUACAAGAAAGUGAGUGAUGUUUAUGUAGAUGAUGAUAUGUUAGAAGGUUAACACGCGC [abcdefghijklmnopqr] | 784 nM | 635 nM | 966 nM | 688 nM | 629 nM |
| GCCAGAUAGACGGCCGCCACUUAUAAGUUUCAGUGAUGUUGGAACGGCAAAUGCCGAACACAAUAGAGGACCGGGUCAACUGGCG [Same State Tryptophan B GF 1] | 920 nM | 591 nM | 835 nM | 901 nM | 639 nM |
| UGAUACCAGACUGAUACCAGCGAGUGAUGUUUGCUGAAAUCAGGGUCAAAGACCCUGUCUCGCCCUUGGCAGCAGUCUGGUAUCU [TheoBX 21 #SwitchBubble #StaticStem] | 735 nM | 601 nM | 754 nM | 223 nM | 688 nM |
| CGGAUGUAGUGAUGUUAUAUUAGAUGUAGACGAGGACCGGUACGGCCGCCACUCGUGAUGGCUGCUAGCGCGUUGCGAGGUUUGC [ExTryptoA.Co] | 408 nM | 558 nM | 567 nM | 633 nM | 386 nM |
| AGAUUCGACACGGCCGCCACUUGUGGUGGAUUAUCCUAUGUAAGACAUGAGUGAUGUUCAUGUACAAGGACCGGGUGUUGAGUCU [KL-XTryp-B4 #analogue] | 215 nM | 177 nM | 199 nM | 193 nM | 425 nM |
| AACGUUUUGAGAAGGAGCGCGUUCAGCAGUGAUGUUGCUUUACUUCAAUUUCUAGAUAAUUCGCAGGUAGGUCGCUCAAUACGUA [JR_Nu_ExcArginiB_Sub023] | 503 nM | 511 nM | 615 nM | 706 nM | 527 nM |
